Reference: article PMC5533585

Molecular target: cytoplasmic dynein-1 heavy chain (human (endogenous in HEK-293)) (UniProt Q14204)
Assay: co-IP + SEC; FLAG immunoprecipitate (GF buffer: 50 mM Tris-HCl pH 8.0, 150 mM NaCl, glycerol, 0.2% Triton X-100) run on Superose 6 Increase 10/300 GL; fractions blotted with anti-FLAG, anti-HC, anti-p150; percent = intensity incorporated/(free + incorporated)

Chain of UniProt Q14204 (Q14204 whole entry): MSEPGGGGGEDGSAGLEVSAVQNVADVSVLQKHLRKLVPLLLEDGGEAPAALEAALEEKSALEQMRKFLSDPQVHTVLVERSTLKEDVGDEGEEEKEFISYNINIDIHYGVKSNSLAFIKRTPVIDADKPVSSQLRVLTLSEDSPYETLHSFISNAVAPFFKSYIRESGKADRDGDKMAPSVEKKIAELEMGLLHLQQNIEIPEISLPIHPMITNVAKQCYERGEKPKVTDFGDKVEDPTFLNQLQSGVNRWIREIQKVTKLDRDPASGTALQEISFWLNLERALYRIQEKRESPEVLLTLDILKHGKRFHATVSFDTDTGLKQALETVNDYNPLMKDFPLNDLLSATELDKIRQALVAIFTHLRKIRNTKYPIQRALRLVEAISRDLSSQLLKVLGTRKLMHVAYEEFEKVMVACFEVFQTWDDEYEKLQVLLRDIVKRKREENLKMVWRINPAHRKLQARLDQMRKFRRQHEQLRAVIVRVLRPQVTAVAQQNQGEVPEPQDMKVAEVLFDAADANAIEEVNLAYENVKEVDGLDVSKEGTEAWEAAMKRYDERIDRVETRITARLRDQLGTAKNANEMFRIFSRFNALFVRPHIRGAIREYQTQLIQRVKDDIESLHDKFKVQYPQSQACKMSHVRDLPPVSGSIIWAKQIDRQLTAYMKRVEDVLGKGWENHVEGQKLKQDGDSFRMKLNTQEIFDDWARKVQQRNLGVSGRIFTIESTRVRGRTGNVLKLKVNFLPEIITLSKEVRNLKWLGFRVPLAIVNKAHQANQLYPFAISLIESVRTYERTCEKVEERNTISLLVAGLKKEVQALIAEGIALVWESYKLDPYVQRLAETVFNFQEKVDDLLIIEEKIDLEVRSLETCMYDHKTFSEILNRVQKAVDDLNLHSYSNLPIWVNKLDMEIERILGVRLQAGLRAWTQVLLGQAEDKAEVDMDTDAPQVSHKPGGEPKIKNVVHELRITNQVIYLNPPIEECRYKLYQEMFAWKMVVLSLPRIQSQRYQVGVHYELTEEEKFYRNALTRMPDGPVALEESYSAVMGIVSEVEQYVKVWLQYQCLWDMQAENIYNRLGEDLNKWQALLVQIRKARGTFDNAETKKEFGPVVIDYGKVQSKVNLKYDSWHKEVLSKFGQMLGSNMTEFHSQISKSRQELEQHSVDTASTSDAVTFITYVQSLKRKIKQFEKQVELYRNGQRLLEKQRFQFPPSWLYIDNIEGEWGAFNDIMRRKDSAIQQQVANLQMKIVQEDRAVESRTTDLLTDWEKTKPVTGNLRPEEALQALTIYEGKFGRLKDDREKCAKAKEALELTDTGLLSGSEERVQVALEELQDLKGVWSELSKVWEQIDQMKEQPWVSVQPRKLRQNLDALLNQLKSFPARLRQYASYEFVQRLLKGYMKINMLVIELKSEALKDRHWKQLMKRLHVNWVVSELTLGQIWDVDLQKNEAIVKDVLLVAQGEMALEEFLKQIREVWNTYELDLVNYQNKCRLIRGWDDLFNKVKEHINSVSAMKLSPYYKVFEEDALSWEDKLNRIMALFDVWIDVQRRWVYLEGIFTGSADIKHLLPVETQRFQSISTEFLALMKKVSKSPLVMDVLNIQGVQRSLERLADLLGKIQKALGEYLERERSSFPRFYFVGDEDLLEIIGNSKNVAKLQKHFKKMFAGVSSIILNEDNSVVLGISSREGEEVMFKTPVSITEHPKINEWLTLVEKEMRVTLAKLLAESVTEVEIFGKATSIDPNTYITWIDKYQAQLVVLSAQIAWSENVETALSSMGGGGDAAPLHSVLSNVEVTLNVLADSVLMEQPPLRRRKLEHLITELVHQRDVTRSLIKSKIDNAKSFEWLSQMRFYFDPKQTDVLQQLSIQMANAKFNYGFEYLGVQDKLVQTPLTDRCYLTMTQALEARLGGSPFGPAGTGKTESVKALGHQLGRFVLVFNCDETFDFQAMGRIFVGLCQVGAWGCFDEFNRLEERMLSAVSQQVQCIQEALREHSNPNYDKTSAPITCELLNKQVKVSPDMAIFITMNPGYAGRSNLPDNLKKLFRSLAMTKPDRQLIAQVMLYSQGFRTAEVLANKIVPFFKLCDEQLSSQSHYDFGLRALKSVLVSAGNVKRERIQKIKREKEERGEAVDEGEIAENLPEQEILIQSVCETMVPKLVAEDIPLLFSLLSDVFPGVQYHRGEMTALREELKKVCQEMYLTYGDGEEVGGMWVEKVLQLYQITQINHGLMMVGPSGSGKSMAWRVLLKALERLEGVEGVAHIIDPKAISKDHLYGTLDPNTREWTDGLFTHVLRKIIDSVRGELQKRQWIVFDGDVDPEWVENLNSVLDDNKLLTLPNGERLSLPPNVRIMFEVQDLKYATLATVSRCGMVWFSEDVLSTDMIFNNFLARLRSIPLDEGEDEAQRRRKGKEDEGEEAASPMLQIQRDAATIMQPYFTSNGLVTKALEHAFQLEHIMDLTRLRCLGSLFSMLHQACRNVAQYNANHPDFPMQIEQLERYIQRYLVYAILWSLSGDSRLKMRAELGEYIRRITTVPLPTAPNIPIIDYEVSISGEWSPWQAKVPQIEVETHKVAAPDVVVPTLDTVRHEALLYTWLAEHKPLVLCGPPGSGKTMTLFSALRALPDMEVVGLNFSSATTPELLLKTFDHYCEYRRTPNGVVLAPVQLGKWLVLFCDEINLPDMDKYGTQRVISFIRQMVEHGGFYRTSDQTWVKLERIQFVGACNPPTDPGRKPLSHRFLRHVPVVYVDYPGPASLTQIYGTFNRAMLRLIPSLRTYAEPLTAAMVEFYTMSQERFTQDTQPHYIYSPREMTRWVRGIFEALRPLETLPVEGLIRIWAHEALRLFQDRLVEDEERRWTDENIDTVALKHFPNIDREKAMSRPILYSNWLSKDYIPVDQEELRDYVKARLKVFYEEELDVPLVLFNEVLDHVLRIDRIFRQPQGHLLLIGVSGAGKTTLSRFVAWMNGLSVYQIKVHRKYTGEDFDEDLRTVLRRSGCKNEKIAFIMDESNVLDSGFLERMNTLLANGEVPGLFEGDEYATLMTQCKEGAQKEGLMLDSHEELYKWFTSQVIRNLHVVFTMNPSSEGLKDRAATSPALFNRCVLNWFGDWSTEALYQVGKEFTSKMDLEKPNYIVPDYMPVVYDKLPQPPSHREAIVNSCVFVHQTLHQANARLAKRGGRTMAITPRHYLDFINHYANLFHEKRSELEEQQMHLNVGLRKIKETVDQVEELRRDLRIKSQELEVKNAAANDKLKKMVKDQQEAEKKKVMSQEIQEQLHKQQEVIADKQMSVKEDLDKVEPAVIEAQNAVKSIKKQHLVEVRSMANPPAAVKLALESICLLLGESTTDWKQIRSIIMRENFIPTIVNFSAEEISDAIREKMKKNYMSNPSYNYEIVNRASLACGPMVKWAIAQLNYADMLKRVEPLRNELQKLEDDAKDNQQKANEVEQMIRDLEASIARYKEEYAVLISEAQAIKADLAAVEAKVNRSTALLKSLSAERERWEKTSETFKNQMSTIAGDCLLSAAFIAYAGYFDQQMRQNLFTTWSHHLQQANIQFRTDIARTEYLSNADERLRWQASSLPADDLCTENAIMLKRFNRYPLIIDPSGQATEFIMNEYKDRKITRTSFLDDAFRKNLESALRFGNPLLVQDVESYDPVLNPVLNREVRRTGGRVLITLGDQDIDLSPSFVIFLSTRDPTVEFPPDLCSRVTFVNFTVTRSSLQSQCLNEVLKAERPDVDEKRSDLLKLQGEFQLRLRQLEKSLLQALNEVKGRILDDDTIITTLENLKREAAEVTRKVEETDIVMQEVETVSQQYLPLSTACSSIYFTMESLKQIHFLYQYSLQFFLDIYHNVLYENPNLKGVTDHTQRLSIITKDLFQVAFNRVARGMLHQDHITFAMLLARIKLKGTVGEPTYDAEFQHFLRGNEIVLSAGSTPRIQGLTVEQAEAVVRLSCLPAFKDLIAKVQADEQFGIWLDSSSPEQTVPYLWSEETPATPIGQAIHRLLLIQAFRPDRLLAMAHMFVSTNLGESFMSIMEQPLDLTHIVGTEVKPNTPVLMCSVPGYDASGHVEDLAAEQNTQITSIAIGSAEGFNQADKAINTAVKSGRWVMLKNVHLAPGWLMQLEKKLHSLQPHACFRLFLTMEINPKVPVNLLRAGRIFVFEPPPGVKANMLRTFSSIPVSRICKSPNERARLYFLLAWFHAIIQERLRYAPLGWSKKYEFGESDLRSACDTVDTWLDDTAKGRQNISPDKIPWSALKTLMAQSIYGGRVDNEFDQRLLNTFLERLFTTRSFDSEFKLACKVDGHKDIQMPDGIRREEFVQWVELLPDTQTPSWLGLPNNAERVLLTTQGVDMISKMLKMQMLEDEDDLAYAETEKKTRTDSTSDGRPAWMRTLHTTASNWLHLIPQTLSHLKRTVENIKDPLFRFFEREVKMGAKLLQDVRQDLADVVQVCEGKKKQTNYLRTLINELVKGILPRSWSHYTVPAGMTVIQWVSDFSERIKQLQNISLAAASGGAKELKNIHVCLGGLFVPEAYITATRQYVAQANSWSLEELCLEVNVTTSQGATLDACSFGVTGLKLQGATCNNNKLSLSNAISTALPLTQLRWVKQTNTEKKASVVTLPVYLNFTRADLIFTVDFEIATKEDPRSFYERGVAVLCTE

## IC2-BioID-3×FLAG (natural protein)
  percent of the tagged subunit incorporated into the complex: 51%
